Data: patent US20190185561A1 (Seagen, published 2019)
Residue numbers refer to the chain shown, from its start. Names and notes keep the numbering of the source. Blank lines part the entries; values can stand above or below the molecule they belong to.

Key:
[1] = target: murine CD47 on murine CD47 positive tumor cells (mouse) (UniProt Q61735); assay: saturation binding by flow cytometry on HT-2 (mouse T cells); range printed beside the two rising curves (mIAP and Cleaved Vel), lower end
[2] = target: murine CD47 on murine CD47 positive tumor cells (mouse) (UniProt Q61735); assay: saturation binding by flow cytometry on HT-2 (mouse T cells)
[3] = target: murine CD47 on murine CD47 positive tumor cells (mouse) (UniProt Q61735); assay: saturation binding by flow cytometry on HT-2 (mouse T cells); range printed beside the two rising curves (mIAP and Cleaved Vel), upper end
[4] = target: T1, human CD47 expressed on the cell surface (human, UniProt Q08722 19-323); assay: saturation binding, flow cytometry, HCT116 cells; HCT116 cells
T1 construct: whole, on cells; also called CD47 on SW780, human red blood cells, HT1080, HCT116, Raji, L450cy and patient blood cells

[5] = target: T1, human CD47 expressed on the cell surface; assay: saturation binding, flow cytometry, Raji cells
[6] = target: T1, human CD47 expressed on the cell surface; assay: saturation binding, flow cytometry, HCT116 cells
[7] = target: T1, human CD47 expressed on the cell surface; assay: saturation binding, flow cytometry, HT1080 cells
[8] = target: T1, human CD47 expressed on the cell surface; assay: saturation binding, flow cytometry, SW780 cells
[9] = target: T2, Soluble recombinant human CD47-Fc (R&D Systems) (human, UniProt Q08722 19-139); assay: saturating ELISA on plates coated with human CD47; column head 'Average EC50 (nM)'
T2 construct: Bought reagent; also called rhCD47; human CD47 (plate-coated); not shown: Fc part of the bought fusion protein

[10] = target: T2, Soluble recombinant human CD47-Fc (R&D …); assay: hCD47 ELISA, absorbance at 450 nm against antibody concentration
[11] = target: T1, human CD47 expressed on the cell surface; assay: saturating cellular FACS on L450cy lymphoma cells
[12] = target: T1, human CD47 expressed on the cell surface; assay: saturation binding, flow cytometry, SW780 cells; remark: listed apart in the source
[13] = target: T1, human CD47 expressed on the cell surface; assay: saturation binding, flow cytometry, SW780 cells; remark: listed apart in the source
[14] = target: T2, Soluble recombinant human CD47-Fc (R&D …); assay: saturation binding ELISA on rhCD47
[15] = target: T1, human CD47 expressed on the cell surface; assay: saturation binding, flow cytometry, human red blood cells
[16] = target: T1, human CD47 expressed on the cell surface; assay: saturation binding, flow cytometry, SW780 cells; remark: listed apart in the source
[17] = target: T1, human CD47 expressed on the cell surface; assay: saturation binding, flow cytometry, human red blood cells; remark: listed apart in the source
[18] = target: T1, human CD47 expressed on the cell surface; assay: saturation binding, flow cytometry, SW780 cells; SW780 human bladder cancer cells

murine CD47 on murine CD47 positive tumor cells (mouse), sequence (Q61735 19-303): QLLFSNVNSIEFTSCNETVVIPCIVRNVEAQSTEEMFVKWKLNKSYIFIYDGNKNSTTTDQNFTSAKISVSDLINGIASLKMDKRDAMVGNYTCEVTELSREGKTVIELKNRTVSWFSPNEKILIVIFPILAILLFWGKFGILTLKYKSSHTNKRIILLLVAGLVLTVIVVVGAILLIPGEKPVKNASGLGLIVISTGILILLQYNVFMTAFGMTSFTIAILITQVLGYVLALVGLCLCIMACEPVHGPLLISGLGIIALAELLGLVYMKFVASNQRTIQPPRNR

B1: Ab47 bearing the A2B1 coiled coil masking domain (antibody)
VH: GASTSVDELQAEVDQLQDENYALKTKVAQLRKKVEKLSEGGGGGPLGVRGGGGSEVQLVESGGGLVQPGGSLRLSCAASGFTFSGYGMSWVRQAPGKGLEWVATITSGGTYTYYPDSVKGRFTISRDNAKNSLYLQMNSLRAEDTAVYYCARSLAGNAMDYWGQGTLVTVSS
VL: GASTTVAQLRERVKTLRAQNYELESEVQRLREQVAQLASGGGGGPLGVRGGGGSEIVLTQSPATLSLSPGERATLSCRASQTISDYLHWYQQKPGQAPRLLIKFASQSISGIPARFSGSGSGTDFTLTISSLEPEDFAVYYCQNGHGFPRTFGQGTKVEIKR
notes: IgG1
Kd [4]: 1780 nM

B3: hB6H12.4 (antibody, V domains shown)
VH: EVQLLESGGGLVQPGGSLRLSCAASGFTFSGYGMSWVRQAPGKRLEWVATITSGGTYTYYPDSVKGRFTISRDNSKNTLYLQMNSLRAEDTAIYFCARSLAGNAMDYWGQGTLVTVSS
VL: DIQMTQSPSSLSASVGDRVTLTCRASQTISNYLAWYQQKPGKVPKLLIKFASTLQSGVPSRFSGSGSGSDFTLTISSLQPEDVATYYCQNGHGFPRTFGQGTKLEIKR
notes: also called hvH1/hvK4; antibody 4 (bin A)
EC50 [9]: 24 nM
EC50 (read off the curve) [10]: ~1 nM
Kd [11]: 0.9 nM

B4: hB6H12.2 (antibody, V domains shown)
VH: B3 VH
VL: EIVMTQSPDFQSVTPKEKVTLTCRASQTISDYLHWYQQKPDQSPKLLIKFASQSISGVPSRFSGSGSGTDFTLTINSLEAEDAATYYCQNGHGFPRTFGQGTKLEIKR
notes: also called hvH1/hvK2; antibody 2 (bin A)
EC50 [9]: 30 nM
Kd [11]: 0.9 nM

B5: Cleaved Vel-IPV-hB6H12.4 (antibody, V domains shown)
VH: B3 VH
VL: B3 VL
notes: MMP2-cleaved; IgG1
Kd [12]: 9.2 nM

B6: Ab47 (antibody, V domains shown)
VH: B3 VH with L5V, R44G, S75A, T78S, I93V, F95Y
VL: EIVLTQSPATLSLSPGERATLSCRASQTISDYLHWYQQKPGQAPRLLIKFASQSISGIPARFSGSGSGTDFTLTISSLEPEDFAVYYCQNGHGFPRTFGQGTKVEIKR
notes: Humanized IgG1; also called alternatively humanized antibody Ab47; humanized IgG1 hB6H12 Ab47
Kd [5]: 3.3 nM
Kd [6]: 7.8 nM
Kd [13]: 8 nM
Kd [14]: 1 nM
EC50 [9]: 16 nM
Kd [15]: 12.1 nM
EC50 (read off the curve) [10]: ~1 nM
Kd [16]: 6.8 nM
Kd [7]: 21 nM
Kd [8]: 9.6 nM
Kd [17]: 26.5 nM
Kd [11]: 0.5 nM

B7: Ab47 G91A (antibody, name in Kabat numbering, V domains shown)
VH: B3 VH with L5V, R44G, S75A, T78S, I93V, F95Y
VL: B6 VL with G91A
notes: built from the Ab47 light chain variable region with G91A; IgG1; also called Ab47 variant bearing a G91A mutation in LCDR3
Kd [15]: 100 nM
Kd [16]: 19.8 nM

B10: hB6H12.17 (antibody, V domains shown)
VH: B3 VH with L5V, R44G, P61A, M83I, I93V, F95Y
VL: B4 VL with T85V
notes: also called hvH5/hvK1; antibody 17 (bin B)
EC50 [9]: 43 nM
Kd [11]: 1 nM

B11: hB6H12.19 (antibody, V domains shown)
VH: B3 VH with L5V, R44G, P61A, M83I, I93V, F95Y
VL: B4 VL with T69S
notes: also called hvH5/hvK3; antibody 19 (bin B)
EC50 [9]: 55 nM
EC50 (read off the curve) [10]: ~3 nM
Kd [11]: 1.3 nM

B16: mB6H12 (antibody, V domains shown)
VH: EVQLVESGGDLVKPGGSLKLSCAASGFTFSGYGMSWVRQTPDKRLEWVATITSGGTYTYYPDSVKGRFTISRDNAKNTLYLQIDSLKSEDTAIYFCARSLAGNAMDYWGQGTSVTVSS
VL: DIVMTQSPATLSVTPGDRVSLSCRASQTISDYLHWYQQKSHESPRLLIKFASQSISGIPSRFSGSGSGSDFTLSINSVEPEDVGVYYCQNGHGFPRTFGGGTKLEIKR
notes: Murine parental antibody; also called murine B6H12; mouse B6H12
EC50 [9]: 37 nM
Kd [11]: 1.2 nM

Next, values leading:

Kd [1]: > 7.5 nM
EC50 (read off the curve) [2]: 10 to 20 nM
Kd [3]: < 15 nM
Molecule: mIAP301 (antibody)

Kd [5]: 466 nM
Kd [6]: 1120 nM
Kd [7]: 1180 nM
Kd [8]: 1680 nM
B2: Ab47 bearing the A4B4 coiled coil masking domain (antibody)
VH: GKIAALKQKIAALKYKNAALKKKIAALKQGGGGGPLGVRGGGGSEVQLVESGGGLVQPGGSLRLSCAASGFTFSGYGMSWVRQAPGKGLEWVATITSGGTYTYYPDSVKGRFTISRDNAKNSLYLQMNSLRAEDTAVYYCARSLAGNAMDYWGQGTLVTVSS
VL: GEIAALEQEIAALEKENAALEWEIAALEQGGGGGPLGVRGGGGSEIVLTQSPATLSLSPGERATLSCRASQTISDYLHWYQQKPGQAPRLLIKFASQSISGIPARFSGSGSGTDFTLTISSLEPEDFAVYYCQNGHGFPRTFGQGTKVEIKR
notes: IgG1

EC50 [9]: 56 nM
EC50 (read off the curve) [10]: ~4 nM
Kd [11]: 1.8 nM
B8: hB6H12.20 (antibody, V domains shown)
VH: B3 VH with L5V, R44G, P61A, M83I, I93V, F95Y
VL: B3 VL
notes: also called hvH5/hvK4; antibody 20 (bin B)

Kd [12]: 30.2 nM
B9: Cleaved Vel-IPV-hB6H12.20 (antibody, V domains shown)
VH: B3 VH with L5V, R44G, P61A, M83I, I93V, F95Y
VL: B3 VL
notes: MMP2-cleaved; IgG1

EC50 [9]: 38 nM
Kd [11]: 1.1 nM
B12: hB6H12.18 (antibody, V domains shown)
VH: B3 VH with L5V, R44G, P61A, M83I, I93V, F95Y
VL: B4 VL
notes: also called hvH5/hvK2; antibody 18 (bin B)

EC50 [9]: 30 nM
Kd [11]: 0.9 nM
B13: hB6H12.1 (antibody, V domains shown)
VH: B3 VH
VL: B4 VL with T85V
notes: also called hvH1/hvK1; antibody 1 (bin A)

Kd [14]: 2.7 nM
Kd [18]: 62.3 nM
B14: hB6H12.3 G91A (antibody, V domains shown)
VH: B3 VH
VL: B4 VL with T69S, G91A
notes: IgG1; also called hB6H12.3 (deamidation mutant); hvH1/hvK3 G91A

Kd [12]: 26.6 nM
B15: Cleaved Vel-IPV-hB6H12.19 (antibody, V domains shown)
VH: B3 VH with L5V, R44G, P61A, M83I, I93V, F95Y
VL: B4 VL with T69S
notes: MMP2-cleaved; IgG1
